Measured values published in PMC4236683, “Semaphorin 5A inhibits synaptogenesis in early postnatal- and adult-born hippocampal dentate granule cells” (eLife, 2014).

How the values were obtained:
[1] = biological target: T1, full-length PlexA2 with an N-terminal 6xMyc tag (mouse, UniProt P70207 35-1894); assay: saturation binding of AP-clustered Fc fusion protein to transfected cells; saturation binding curve of Sema5A-Fc, oligomerized with anti-Fc conjugated to human placental alkaline phosphatase, on COS7 cells expressing PlexA1 or PlexA2; details: one partner purified
T1 construct: Plexin-A2, mouse, full length (FL); written as one molecule; also called PlexinA2; Myc-FL-A2; source: COS7, transiently transfected, on cells; HEK293T, transfected, in lysate; not shown: 6xMyc, N-terminal, kept
T1 sequence (P70207 35-1894): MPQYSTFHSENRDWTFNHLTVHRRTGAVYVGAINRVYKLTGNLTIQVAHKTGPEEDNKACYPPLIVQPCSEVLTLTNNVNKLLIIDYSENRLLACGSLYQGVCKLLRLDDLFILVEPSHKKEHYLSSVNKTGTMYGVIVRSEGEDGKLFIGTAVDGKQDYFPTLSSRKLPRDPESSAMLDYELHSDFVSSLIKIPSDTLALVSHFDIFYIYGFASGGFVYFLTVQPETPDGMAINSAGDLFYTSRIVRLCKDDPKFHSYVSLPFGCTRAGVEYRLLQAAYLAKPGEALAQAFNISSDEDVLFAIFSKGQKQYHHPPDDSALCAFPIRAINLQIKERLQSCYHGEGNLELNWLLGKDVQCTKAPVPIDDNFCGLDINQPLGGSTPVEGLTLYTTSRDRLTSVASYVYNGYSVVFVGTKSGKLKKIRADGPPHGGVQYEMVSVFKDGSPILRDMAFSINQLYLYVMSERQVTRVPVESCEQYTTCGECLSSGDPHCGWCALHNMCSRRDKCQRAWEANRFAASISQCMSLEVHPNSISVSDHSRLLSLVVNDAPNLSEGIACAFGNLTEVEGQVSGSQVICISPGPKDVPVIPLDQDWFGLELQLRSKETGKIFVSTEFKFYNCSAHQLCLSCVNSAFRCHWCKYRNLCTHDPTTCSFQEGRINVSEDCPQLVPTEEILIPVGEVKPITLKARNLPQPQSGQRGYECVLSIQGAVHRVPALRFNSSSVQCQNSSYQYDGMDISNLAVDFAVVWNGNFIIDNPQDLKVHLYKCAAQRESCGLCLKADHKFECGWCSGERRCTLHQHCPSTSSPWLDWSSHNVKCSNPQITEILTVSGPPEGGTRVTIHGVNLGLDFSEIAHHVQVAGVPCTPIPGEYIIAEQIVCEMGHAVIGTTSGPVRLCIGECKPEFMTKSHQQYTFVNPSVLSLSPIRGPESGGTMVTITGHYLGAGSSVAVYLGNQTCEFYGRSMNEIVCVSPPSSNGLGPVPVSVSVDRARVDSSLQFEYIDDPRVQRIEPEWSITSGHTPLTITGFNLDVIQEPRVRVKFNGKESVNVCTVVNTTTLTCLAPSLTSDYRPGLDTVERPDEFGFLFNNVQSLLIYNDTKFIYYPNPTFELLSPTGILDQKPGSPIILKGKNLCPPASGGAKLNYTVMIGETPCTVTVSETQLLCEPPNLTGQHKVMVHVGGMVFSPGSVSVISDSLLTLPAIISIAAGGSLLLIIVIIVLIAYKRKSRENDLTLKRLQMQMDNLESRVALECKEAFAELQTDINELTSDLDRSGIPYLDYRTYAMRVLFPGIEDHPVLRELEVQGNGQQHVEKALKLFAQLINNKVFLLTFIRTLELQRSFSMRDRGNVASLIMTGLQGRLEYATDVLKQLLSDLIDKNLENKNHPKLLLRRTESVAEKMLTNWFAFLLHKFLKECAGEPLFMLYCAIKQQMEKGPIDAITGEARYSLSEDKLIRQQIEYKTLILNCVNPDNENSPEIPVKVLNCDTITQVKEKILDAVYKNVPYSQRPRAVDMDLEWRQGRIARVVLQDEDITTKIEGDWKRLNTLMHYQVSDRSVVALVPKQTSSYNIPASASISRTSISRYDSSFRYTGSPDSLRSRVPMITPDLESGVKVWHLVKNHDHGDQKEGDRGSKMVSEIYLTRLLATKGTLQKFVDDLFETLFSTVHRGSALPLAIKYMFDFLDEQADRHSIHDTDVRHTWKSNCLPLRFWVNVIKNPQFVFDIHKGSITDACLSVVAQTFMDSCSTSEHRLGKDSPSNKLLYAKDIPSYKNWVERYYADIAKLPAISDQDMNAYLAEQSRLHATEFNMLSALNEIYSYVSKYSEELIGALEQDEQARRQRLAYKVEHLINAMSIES

[2] = biological target: T2, full-length PlexA1 with an N-terminal 6xMyc tag (mouse, UniProt P70206 28-1894); assay: as above; details: one partner purified
T2 construct: Plexin-A1, mouse, full length (FL); written as one molecule; also called PlexinA1; Myc-FL-A1; source: COS7, transiently transfected, on cells; HEK293T, transfected, in lysate; not shown: 6xMyc, N-terminal, kept
T2 sequence (P70206 28-1894): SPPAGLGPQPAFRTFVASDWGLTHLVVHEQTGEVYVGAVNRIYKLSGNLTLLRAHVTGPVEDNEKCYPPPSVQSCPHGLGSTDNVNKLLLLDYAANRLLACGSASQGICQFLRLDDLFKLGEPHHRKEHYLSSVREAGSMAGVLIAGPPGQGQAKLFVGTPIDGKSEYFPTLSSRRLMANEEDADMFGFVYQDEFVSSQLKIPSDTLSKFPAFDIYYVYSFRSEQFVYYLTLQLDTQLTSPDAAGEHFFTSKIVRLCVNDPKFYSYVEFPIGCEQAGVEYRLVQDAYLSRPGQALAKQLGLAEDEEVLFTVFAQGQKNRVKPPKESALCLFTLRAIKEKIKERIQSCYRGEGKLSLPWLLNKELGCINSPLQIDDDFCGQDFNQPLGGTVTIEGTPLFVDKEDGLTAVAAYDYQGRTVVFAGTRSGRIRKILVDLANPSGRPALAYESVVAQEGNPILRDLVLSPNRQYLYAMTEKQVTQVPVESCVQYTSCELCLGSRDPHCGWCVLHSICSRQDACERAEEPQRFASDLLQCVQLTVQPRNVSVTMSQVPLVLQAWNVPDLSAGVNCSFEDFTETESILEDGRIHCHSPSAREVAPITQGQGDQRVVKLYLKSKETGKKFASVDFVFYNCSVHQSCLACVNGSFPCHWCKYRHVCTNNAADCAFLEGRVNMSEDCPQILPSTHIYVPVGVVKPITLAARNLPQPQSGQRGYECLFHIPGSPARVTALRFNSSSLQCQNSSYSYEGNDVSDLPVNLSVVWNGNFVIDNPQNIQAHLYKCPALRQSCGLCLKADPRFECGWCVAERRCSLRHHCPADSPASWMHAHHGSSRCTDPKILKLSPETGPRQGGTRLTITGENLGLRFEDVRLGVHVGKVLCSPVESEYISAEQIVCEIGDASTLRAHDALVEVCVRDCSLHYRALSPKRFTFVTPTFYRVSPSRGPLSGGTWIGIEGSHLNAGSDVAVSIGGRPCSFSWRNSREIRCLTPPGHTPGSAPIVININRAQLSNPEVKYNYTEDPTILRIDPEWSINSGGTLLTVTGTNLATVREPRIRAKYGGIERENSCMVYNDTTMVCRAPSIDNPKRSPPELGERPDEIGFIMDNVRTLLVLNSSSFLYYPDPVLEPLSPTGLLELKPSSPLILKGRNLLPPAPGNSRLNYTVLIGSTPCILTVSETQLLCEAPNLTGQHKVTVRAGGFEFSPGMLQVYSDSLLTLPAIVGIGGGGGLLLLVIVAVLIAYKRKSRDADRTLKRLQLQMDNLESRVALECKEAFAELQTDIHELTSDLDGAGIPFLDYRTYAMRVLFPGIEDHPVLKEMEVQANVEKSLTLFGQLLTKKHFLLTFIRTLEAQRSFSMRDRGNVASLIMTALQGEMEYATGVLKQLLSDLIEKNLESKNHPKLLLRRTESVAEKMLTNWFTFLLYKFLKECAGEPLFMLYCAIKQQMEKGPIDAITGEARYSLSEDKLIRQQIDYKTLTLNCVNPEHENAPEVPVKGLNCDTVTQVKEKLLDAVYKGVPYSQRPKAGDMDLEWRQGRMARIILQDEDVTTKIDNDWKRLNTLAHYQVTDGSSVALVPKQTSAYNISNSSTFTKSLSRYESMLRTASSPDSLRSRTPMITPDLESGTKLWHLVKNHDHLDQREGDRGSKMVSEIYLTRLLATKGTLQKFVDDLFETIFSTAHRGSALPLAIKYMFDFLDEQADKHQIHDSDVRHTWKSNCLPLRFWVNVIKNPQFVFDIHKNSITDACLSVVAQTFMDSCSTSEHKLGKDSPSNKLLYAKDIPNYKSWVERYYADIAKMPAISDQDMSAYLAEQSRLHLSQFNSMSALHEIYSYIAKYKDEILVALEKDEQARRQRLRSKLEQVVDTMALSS

B1: Sema5A-Fc (Sema5A ectodomain fused to Fc) (Fc fusion, rat, UniProt D3ZTD8 23-961, looked up)
chain: ETQDPAKCQRAEHPVVSYKEIGPWLREFRAENAVDFSRLTFDPGQKELVVGARNYLFRLQLEDLSLIQAVQWECDEATKKACYSKGKSKEECQNYIRVLLVGGDRLFTCGTNAFTPVCTIRSLSNLTEIHDQISGMARCPYSPQHNSTALLTASGELYAATAMDFPGRDPAIYRSLGTLPPLRTAQYNSKWLNEPNFVSSYDIGNFTYFFFRENAVEHDCGKTVFSRAARVCKNDIGGRFLLEDTWTTFMKARLNCSRPGEVPFYYNELQSTFFLPELDLIYGIFTTNVNSIAASAVCVFNLSAISQAFNGPFKYQENSRSAWLPYPNPNPNFQCGTMDQGLYVNLTERNLQDAQKFILMHEVVQPVTTVPSFMEDNSRFSHVAVDVVQGRDTLVHIIYLATDYGTIKKVRAPLSQSSGSCLLEEIELFPERKSEPIRSLKILHSQSVLFVGLQEHVVKIPLKRCHFHQTRGACIGAQDPYCGWDAVMKKCTSLEESLSMTQWDQSVPTCPTRNLTVDGSFGPWSPWTPCTHTDGTAVGSCLCRSRSCDSPAPQCGGWQCEGPRMEITNCSRNGGWTPWTSWSPCSTTCGIGFQVRQRSCSNPTPRHGGRVCVGQNREERYCNEHLLCPPHVFWTGWGPWERCTAQCGGGIQARRRTCENGPDCAGCNVEYQPCNTNACPELKKTTPWTPWTPVNISDNGGHYEQRFRYTCKARLPDPNLLEVGRQRIEMRYCSSDGTSGCSTDGLSGDFLRAGRYSAHTVNGAWSAWTSWSQCSRDCSRGIRNRKRVCNNPEPKYGGMPCLGPSLEFQECNILPCPVDGVWSCWSSWSKCSATCGGGHYMRTRSCTNPAPAYGGDICLGLHTEEALCNTQTCPENWSEWSEWSVCDASGTQVRTRQCILLFPVGSQCSGNTTESRPCVFDSNFIPEVSVARSSSVEEK
notes: signal peptide in the construct; Sema5A ectodomain, rat cDNA NM_001107659, residues 1-961; Assembled in pcDNA3.0; also called Fc-tagged Sema5A ectodomain protein
Kd [1]: 13 nM
Kd [2]: 10 nM
